This note sets out measurements from patent publication US20050026822A1 (HOWARD FLOREY INSTITUTE OF EXPERIMENTAL PHYSIOLOGY AND …, published 2005).

As a reminder, the pKi is the negative decadic logarithm of the Ki, by convention in mol/L. High values mean a low Ki, low ones a high Ki.

Bridge positions count the residues as written; N and C are the ends. Ends that are not written are not given here. I, II: the chains in the order shown.

For assay [1], the target named is T1, Human relaxin receptor on THP-1 cells (human, UniProt Q9HBX9 1-757).
T1 sequence (looked up): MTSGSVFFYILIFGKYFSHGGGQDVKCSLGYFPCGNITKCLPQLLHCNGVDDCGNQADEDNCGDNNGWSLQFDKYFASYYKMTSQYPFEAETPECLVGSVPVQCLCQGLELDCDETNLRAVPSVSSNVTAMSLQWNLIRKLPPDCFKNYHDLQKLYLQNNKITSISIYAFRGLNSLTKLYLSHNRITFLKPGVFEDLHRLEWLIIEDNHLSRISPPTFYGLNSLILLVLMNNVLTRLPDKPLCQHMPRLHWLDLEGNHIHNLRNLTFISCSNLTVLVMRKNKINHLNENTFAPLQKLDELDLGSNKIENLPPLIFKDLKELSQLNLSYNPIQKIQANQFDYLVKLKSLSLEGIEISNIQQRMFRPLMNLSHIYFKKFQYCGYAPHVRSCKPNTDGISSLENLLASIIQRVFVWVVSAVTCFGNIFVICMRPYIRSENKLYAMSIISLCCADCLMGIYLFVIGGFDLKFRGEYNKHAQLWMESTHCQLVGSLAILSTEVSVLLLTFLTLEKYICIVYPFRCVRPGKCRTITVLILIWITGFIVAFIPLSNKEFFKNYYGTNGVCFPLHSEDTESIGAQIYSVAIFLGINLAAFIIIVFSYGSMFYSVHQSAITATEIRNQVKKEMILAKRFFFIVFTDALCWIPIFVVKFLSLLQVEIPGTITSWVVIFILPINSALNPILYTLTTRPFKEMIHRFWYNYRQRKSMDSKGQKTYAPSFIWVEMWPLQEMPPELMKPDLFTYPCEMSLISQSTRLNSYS
In words: cell-based or functional assay.

Assay [2] concerns the target T1, Human relaxin receptor on THP-1 cells. Briefly: competition with 33P-labeled H2 (B33) relaxin (100 pM) for binding to THP-1 cells. As for the experimental part: THP-1 Cell Binding Assay—THP-1 cells were spun down and resuspended in binding buffer (20 mM HEPES, 50 mM NaCl, 1.5 mM CaCl₂, 1% BSA, 0.1 mg/ml lysine, 0.01% […], pH 7.5) (Parsell et al (1996) J. Biol. Chem. 271, 27936-27941) to give 2×10⁶ cells/well in a 96-well plate. The cells were incubated in binding buffer with ³³P-labeled H2 (B33) relaxin (100 pM: labeled as previously described (Tan et al (1999) Br. J. Pharmacol. 127, 91-98) at 25° C. for 90 min in the absence or presence of increasing concentrations of unlabeled H1, H2 and H3 relaxin (100 pM to 30 nM). Non-specific binding was defined with H2 relaxin (1 μM. Cells were harvested using a Packard 96-well plate cell harvester and Whatman GF/C glass fibre filters treated with 0.5% polyethylenimine. The filters were washed three times with modified binding buffer (20 mM HEPES, 50 mM NaCl, 1.5 mM CaCl₂), dried in a 37° C. oven, and the radioactivity counted by liquid scintillation spectrometry (TopCount™, Canberra Packard, Australia).

B1: Synthetic human H1 relaxin (ligand)
chain 1: RPYVALFEKCCLIGCTKRSLAKYC
chain 2: KWKDDVIKLCGRELVRAQIAICGMSTWS
notes: mature; Synthesized previously (Wade et al 1996); also called human 1 relaxin
As for B1, in assay [1], the “cAMP production in THP-1 cells, EC50” value came out at 794 pM and the “cAMP production in THP-1 cells, pEC50” value came to 9.1. For the same molecule, the pKi in assay [2] is 8.9.

B2: Recombinant human H2 relaxin (ligand)
chain 1: QLYSALANKCCHVGCTKRSLARFC
chain 2: DSWMEEVIKLCGRELVRAQIAICGMSTWS
modifications: not fully specified (bridges); ends and bridges not checked
notes: mature; Gift from Connetics Corporation; also called human 2 relaxin
In the case of B2, in assay [1], the “cAMP production in THP-1 cells, EC50” value came out at 214 pM and the “cAMP production in THP-1 cells, pEC50” value came out at 9.67. The pKi in assay [2] was determined as 8.74.

B3: Synthetic human H3 relaxin [hRlx-3 A(1-24) amide-B(1-27) amide] (ligand)
chain 1: DVLAGLSSSCCKWGCSKSEISSLC-NH2
chain 2: RAAPYGVRLCGREFIRAVIFTCGGSRW-NH2
modifications: disulfide I:10-I:15, I:11-II:10, I:24-II:22
notes: Made by solid phase synthesis; also called human 3 relaxin; synthetic H3 relaxin C-terminal amide derivative
As to B3, in assay [1], the “cAMP production in THP-1 cells, EC50” value worked out at 2110 pM and the “cAMP production in THP-1 cells, pEC50” value was determined as 8.68. The pKi in assay [2] stood at 7.5.
